For one data set, the target named is T1, TvDAAO (Trigonopsis variabilis, UniProt Q99042).
T1 construct: gene DAO1; FAD-containing; no tag mentioned
Briefly: horseradish peroxidase / ABTS coupled assay, […] nm. It counts as biochemical. Particulars: 0.05 M potassium phosphate pH 8.0, 30 °C, air saturated; read-out: wt-TvDAAO / KM.

Substrate in data set [1]: [H][C@]12SCC(COC(C)=O)=C(C(=O)O)N1C(=O)[C@H]2NC(=O)CCC[C@@H](N)C(=O)O
Briefly: CPC consumption by HPLC, initial rates. It counts as biochemical, Trigonopsis variabilis. As to conditions: 0.1 M potassium phosphate pH 8.0, 30 °C, air saturated. An excerpt:
CPC consumption by HPLC, initial rates on TvDAAO

Substrate in data set [2]: C[C@@H](N)C(=O)O
As to the kind of experiment: purified protein. Particulars: 0.05 M potassium phosphate pH 8.0, 30 °C, air saturated.

Substrate in data set [3]: CC(C)[C@@H](N)C(=O)O
As to the kind of experiment: purified protein. As to conditions: 0.05 M potassium phosphate pH 8.0, 30 °C, air saturated.

Substrate in data set [4]: NC(=O)C[C@@H](N)C(=O)O
Briefly: purified protein. Particulars: 0.05 M potassium phosphate pH 8.0, 30 °C, air saturated.

Substrate in data set [5]: CC(C)C[C@@H](N)C(=O)O
As to the kind of experiment: purified protein. As to conditions: 0.05 M potassium phosphate pH 8.0, 30 °C, air saturated.

Substrate in data set [6]: CSCC[C@@H](N)C(=O)O
As to the kind of experiment: purified protein. It is filed as biochemical, Trigonopsis variabilis. Particulars: 0.05 M potassium phosphate pH 8.0, 30 °C, air saturated.

Changes are numbered by the printed parent chain. Names and notes keep the numbering of the source.

T1 sequence (Q99042 whole entry): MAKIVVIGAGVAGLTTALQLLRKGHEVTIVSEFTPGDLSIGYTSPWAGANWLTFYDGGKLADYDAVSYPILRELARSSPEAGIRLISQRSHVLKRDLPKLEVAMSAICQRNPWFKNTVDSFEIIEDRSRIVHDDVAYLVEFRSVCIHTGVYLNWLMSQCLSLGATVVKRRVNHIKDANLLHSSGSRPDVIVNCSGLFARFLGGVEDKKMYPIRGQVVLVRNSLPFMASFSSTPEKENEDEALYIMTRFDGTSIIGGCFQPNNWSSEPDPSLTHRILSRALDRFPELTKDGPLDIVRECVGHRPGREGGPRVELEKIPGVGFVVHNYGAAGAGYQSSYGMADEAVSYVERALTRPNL

With `CSCC[C@@H](N)C(=O)O` [D-Met], the Km at TvDAAO came to 460 µM.
Turning to `N[C@H](CO)C(=O)O` [D-Ser], the Km at TvDAAO was determined as 37000 µM.
With `N[C@H](Cc1ccccc1)C(=O)O` [D-Phe], on TvDAAO, the Km came out at 370 µM.
Regarding `N[C@H](Cc1c[nH]c2ccccc12)C(=O)O` [D-Trp], on TvDAAO, the Km is 490 µM.
The same measure, in the same setting: in the case of `N[C@H](Cc1ccc(O)cc1)C(=O)O` [D-Tyr] it was 450 µM.
In the case of `C[C@H](O)[C@@H](N)C(=O)O` [D-Thr], the Km at TvDAAO came to 11000 µM.
On the same count and under the same terms, in the case of `NCCCC[C@@H](N)C(=O)O` [D-Lys] it was 29000 µM.

B1: TvDAAO (Trigonopsis variabilis; C108F/C298Q/E32R/F33D/F54S/M156L) (protein)
chain: MAKIVVIGAGVAGLTTALQLLRKGHEVTIVSRDTPGDLSIGYTSPWAGANWLTSYDGGKLADYDAVSYPILRELARSSPEAGIRLISQRSHVLKRDLPKLEVAMSAIFQRNPWFKNTVDSFEIIEDRSRIVHDDVAYLVEFRSVCIHTGVYLNWLLSQCLSLGATVVKRRVNHIKDANLLHSSGSRPDVIVNCSGLFARFLGGVEDKKMYPIRGQVVLVRNSLPFMASFSSTPEKENEDEALYIMTRFDGTSIIGGCFQPNNWSSEPDPSLTHRILSRALDRFPELTKDGPLDIVREQVGHRPGREGGPRVELEKIPGVGFVVHNYGAAGAGYQSSYGMADEAVSYVERALTRPNL
notes: FAD-containing; no tag mentioned
The term kcat denotes the maximal rate divided by the concentration of active sites. For orientation: kcat/Km means the second-order rate constant that governs catalysis at low substrate concentration. Take B1: in data set [1], the Km came out at 1400 ± 300 µM, the catalytic constant (kcat) turned out to be 68 ± 0.5 s⁻¹ and the kcat/Km was found to be 50000 ± 9000 M⁻¹ s⁻¹.

B2: TvDAAO (Trigonopsis variabilis; C108F/E32R/F33D) (protein)
chain: B1 chain with S54F, L156M, Q298C
notes: as for B1
As for B2, in data set [1], the Km was determined as 1150 ± 80 µM, the catalytic constant (kcat) stood at 25.5 ± 1.4 s⁻¹ and the kcat/Km worked out at 22000 ± 2000 M⁻¹ s⁻¹.

B3: TvDAAO (Trigonopsis variabilis; C108F/E32R/F33D/F54S) (protein)
chain: B1 chain with L156M, Q298C
notes: as for B1
As for B3, in data set [1], the Km amounted to 1900 ± 400 µM, the kcat stood at 88 ± 10 s⁻¹ and the specificity constant (kcat/Km) is 45000 ± 11000 M⁻¹ s⁻¹.

B4: TvDAAO (Trigonopsis variabilis; C108F/F54S/M156L) (protein)
chain: B1 chain with R32E, D33F, Q298C
notes: as for B1
For B4, in data set [1], the Km was 1900 ± 600 µM, the catalytic constant (kcat) came to 119 ± 7 s⁻¹ and the catalytic efficiency (kcat/Km) is 60000 ± 20000 M⁻¹ s⁻¹.

B5: TvDAAO (Trigonopsis variabilis; C108F/C298G/E32R/F33D/F54S/M156L) (protein)
chain: B1 chain with Q298G
notes: as for B1
Consider B5, for which, in data set [1], the Km came to 800 ± 200 µM, the catalytic constant (kcat) was determined as 65 ± 5 s⁻¹ and the kcat/Km came to 79000 ± 15000 M⁻¹ s⁻¹.

B6: TvDAAO (Trigonopsis variabilis) (protein)
chain: B1 chain with R32E, D33F, S54F, F108C, L156M, Q298C
notes: as for B1
With B6, the Km in the data set “purified protein [2]” was found to be 17000 µM; in “purified protein [3]” it was 14000 µM; in “purified protein [4]”, 23000 µM; in the data set “purified protein [5]” it was 400 µM; in data set [1], 1400 ± 400 µM. Further, the kcat in “purified protein [2]” amounted to 109 s⁻¹; in “purified protein [3]”, 85 s⁻¹; in “purified protein [4]”, 62 s⁻¹; in the data set “purified protein [5]”, 29 s⁻¹; in data set [1], 26 ± 3 s⁻¹. Besides, in data set [1], the specificity constant (kcat/Km) was determined as 18000 ± 5000 M⁻¹ s⁻¹.

B7: TvDAAO (Trigonopsis variabilis; C108F/C298N/E32R/F33D/F54S/M156L) (protein)
chain: B1 chain with Q298N
notes: as for B1
As for B7, in data set [1], the Km was determined as 2900 ± 500 µM, the kcat turned out to be 121 ± 15 s⁻¹ and the kcat/Km was found to be 42000 ± 8000 M⁻¹ s⁻¹. For the same molecule, in “purified protein [6]”, the Km stood at 1400 µM and the turnover number (kcat) is 41 s⁻¹.

B8: TvDAAO (Trigonopsis variabilis; C108F/E32R/F33D/F54S/M156L) (protein)
chain: B1 chain with Q298C
notes: as for B1
With B8, in data set [1], the Km amounted to 1600 ± 300 µM, the catalytic constant (kcat) came out at 106 ± 9 s⁻¹ and the catalytic efficiency (kcat/Km) turned out to be 66000 ± 12000 M⁻¹ s⁻¹.

These data come from paper PMC6770189, “Multipoint TvDAAO Mutants for Cephalosporin C Bioconversion” (International Journal of Molecular Sciences, 2019).
